The values below come from publication PMC6663954.

In the assay the target is RsPGs (polygalacturonases from Rhizoctonia solani) (Rhizoctonia solani).

The substance “OsPGIP2^L233F, recombinant His-tagged (natural protein)” registered a reduction of RsPG activity, reduced sugar assay (polygalacturonic acid, 50 mM sodium citrate pH 5.0, 37 °C, 1 h) of 40.6%.
